Assay results as given in patent US20260184785A1 (CYTOCARES SHANGHAI, published 2026).

Target: T1, trispecific antibody LMOAME
T1 construct: Trispecific single-chain tandem scFv, monomer of 83.8 kDa without Fc; also called CD19×CD3×CD28 antibody; LMOAME DP
Assay: ELISA, antigen-Fc coated on the plate, detection with HRP-protein L
Protocol: Recombinant human CD19 antigen (CD19 (C-Fc), Novoprotein, Cat #: C572), and CD28 antigen (CD28 (C-Fc), Novoprotein, Cat #: C81) were diluted to 2 μg/mL with a protein coating solution, and plates were coated with the dilutions of 100 μL per well overnight at 2-8° C. The plates were washed the next day and blocked with a blocking solution of 1% Casein+3% BSA (PBS+2% BSA (V/W)).
The diluted antibodies were added to the 96-well flat bottom plates coated with antigens respectively and incubated for 1 h at 37° C.

B1: Recombinant human CD19 antigen (CD19 (C-Fc), Novoprotein, Cat #: C572) (Fc fusion, UniProt P15391 20-291, looked up)
chain: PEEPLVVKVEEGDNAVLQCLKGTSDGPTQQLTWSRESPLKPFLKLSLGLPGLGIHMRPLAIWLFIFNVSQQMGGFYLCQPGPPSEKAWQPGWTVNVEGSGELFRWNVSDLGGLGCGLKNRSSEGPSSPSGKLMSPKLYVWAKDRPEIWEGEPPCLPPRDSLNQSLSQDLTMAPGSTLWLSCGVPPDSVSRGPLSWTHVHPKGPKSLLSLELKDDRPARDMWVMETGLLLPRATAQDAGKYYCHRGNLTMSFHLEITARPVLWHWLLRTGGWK
notes: Bought C-terminal Fc fusion; also called rhCD19; hCD19 antigen; not shown: C-terminal Fc tag of the bought protein
- binding result: binds
